Changes are numbered by the printed parent chain.

First the molecules themselves.
T1: CREG1 (Homo sapiens (Human), UniProt O75629 32-220)
T1 sequence: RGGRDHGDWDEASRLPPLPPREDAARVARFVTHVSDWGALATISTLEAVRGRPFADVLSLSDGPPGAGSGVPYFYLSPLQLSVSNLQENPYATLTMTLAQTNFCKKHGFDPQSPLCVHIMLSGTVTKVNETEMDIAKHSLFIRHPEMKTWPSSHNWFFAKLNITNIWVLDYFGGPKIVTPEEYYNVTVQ

T2: EPYC (Homo sapiens (Human), UniProt Q99645 20-322)
T2 sequence: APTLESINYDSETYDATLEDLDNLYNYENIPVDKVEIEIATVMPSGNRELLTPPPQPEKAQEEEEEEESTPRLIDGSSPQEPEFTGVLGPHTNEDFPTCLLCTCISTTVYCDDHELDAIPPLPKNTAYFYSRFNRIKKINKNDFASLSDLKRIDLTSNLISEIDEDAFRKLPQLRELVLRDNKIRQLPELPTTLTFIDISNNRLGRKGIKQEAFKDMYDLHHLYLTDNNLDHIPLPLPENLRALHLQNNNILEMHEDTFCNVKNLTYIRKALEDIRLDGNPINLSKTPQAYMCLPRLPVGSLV

T3: TNFSF8 (Homo sapiens (Human), UniProt P32971 63-234)
T3 sequence: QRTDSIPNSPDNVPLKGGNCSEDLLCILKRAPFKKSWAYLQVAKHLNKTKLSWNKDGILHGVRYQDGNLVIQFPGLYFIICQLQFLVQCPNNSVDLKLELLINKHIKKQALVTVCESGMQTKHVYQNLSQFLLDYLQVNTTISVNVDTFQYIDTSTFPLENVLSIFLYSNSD

T4: LRTM1 (Homo sapiens (Human), UniProt Q9HBL6 28-288)
T4 sequence: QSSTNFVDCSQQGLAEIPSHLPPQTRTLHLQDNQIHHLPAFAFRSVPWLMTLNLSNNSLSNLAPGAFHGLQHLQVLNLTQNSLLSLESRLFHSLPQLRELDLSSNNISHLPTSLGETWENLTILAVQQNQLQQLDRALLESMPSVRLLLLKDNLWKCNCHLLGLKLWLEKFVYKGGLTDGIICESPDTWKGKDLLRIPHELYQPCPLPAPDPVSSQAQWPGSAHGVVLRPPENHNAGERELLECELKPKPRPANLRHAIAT

T5: DKK1 (Homo sapiens (Human), UniProt O94907 32-266)
T5 sequence: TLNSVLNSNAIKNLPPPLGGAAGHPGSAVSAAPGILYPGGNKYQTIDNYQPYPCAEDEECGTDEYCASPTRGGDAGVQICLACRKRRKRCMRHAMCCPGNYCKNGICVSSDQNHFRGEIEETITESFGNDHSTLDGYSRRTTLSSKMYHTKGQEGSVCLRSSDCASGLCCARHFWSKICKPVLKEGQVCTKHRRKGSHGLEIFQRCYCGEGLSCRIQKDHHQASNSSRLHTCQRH

T6: FSTL3 (Homo sapiens (Human), UniProt O95633 27-263)
T6 sequence: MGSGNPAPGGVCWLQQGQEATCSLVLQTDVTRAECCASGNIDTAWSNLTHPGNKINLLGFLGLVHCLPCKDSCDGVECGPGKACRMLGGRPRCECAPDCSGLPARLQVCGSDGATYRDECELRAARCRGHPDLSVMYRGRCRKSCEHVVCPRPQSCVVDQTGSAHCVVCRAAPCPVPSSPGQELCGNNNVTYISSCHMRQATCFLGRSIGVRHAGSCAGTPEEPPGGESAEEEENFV

T7: TMED1 (Homo sapiens (Human), UniProt Q13445 24-194)
T7 sequence: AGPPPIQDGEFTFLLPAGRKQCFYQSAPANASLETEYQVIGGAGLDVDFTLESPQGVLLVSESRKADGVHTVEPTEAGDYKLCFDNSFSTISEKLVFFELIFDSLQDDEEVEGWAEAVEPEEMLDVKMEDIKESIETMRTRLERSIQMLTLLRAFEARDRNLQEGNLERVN

T8: SLITRK2 (Homo sapiens (Human), UniProt Q9H156 22-621)
T8 sequence: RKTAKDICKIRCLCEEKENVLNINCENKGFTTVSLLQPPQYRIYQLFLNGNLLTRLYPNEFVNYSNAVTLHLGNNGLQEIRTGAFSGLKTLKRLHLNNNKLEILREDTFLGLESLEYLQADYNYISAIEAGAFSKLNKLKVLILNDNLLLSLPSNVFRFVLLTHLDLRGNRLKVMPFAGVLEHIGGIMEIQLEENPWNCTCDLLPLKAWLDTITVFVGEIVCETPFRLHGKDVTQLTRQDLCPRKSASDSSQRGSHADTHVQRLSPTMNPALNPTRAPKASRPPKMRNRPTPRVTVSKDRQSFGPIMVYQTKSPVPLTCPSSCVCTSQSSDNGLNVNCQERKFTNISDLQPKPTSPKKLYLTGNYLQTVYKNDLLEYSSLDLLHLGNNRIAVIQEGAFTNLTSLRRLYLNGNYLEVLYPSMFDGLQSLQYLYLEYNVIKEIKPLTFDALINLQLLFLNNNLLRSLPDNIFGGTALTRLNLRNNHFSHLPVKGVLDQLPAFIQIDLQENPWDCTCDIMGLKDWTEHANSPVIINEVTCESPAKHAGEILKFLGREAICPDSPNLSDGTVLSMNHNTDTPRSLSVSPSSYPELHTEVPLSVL

B1: PD1-45D6 (antibody, V domains shown)
VH: QVQLVESGGGVVQPGRSLRLSCAASGFTFSSYAMHWVRQVPGKGLEWVAVISYDGNDKYYADSVKGRFTISRDNSKNTLYLQMNSLRAEDTAVYYCVPTTFEYWGQGSQVTVSS
VL: DIVMTQTPLSLPVTPGEAASISCRSSQSLLDSDDGKTYLDWYLQKPGQSPQLLIYTLSYRASGVPDRFSGSGSGTEFNLRISRVEAEDVGIYYCMQRVEFPFTFGQGTKLDIK
notes: scFv-phage in the screening ELISA; whole IgG in the other assays
B2: PD1-41C9 (antibody, V domains shown)
VH: QMQLVESGGGVVQPGRSLRLSCAASGFTFSSYAMHWVRQAPGKGLEWVAVISYDGSNKYYADSVKGRFTISRDNSKNTLYLQMNRLRSEDTAVYYCTTTTFDSWGQGTLITVSS
VL: DIVMTQTPLSLPVTPGEAASISCRSSQSLLDSEDGNTYLDWYLQKPGQSPQLLIYTLSHRASGVPDRFSGSGSGTDFTLKISRVAAEDVGLYYCLQRMGFPYTFGQGTKLDIK
notes: as for B1
B3: PD1-49A2 (antibody, V domains shown)
VH: B2 VH with M2V, S75P, R85S, S88A, Q106R, I110V
VL: B2 VL with T7S, A18P, L30F, E33D, A85E, L91I, L110V, D111E
notes: scFv-phage in the screening ELISA; whole IgG in the other assays; also called Parent 49A2

PLXDC2, sequence (Q6UX71 31-454 limits assumed): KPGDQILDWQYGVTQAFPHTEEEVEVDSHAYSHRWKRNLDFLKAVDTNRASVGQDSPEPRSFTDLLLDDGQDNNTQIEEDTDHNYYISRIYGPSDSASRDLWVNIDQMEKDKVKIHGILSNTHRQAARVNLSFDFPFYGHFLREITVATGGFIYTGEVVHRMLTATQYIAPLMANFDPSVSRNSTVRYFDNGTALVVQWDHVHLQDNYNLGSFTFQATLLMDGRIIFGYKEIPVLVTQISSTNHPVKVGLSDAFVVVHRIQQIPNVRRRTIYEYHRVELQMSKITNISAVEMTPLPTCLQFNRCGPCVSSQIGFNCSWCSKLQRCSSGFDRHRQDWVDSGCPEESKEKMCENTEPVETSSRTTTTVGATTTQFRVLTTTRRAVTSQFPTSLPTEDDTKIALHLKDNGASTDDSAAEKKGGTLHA
DKK3, sequence (Q9UBP4 22-350 limits assumed): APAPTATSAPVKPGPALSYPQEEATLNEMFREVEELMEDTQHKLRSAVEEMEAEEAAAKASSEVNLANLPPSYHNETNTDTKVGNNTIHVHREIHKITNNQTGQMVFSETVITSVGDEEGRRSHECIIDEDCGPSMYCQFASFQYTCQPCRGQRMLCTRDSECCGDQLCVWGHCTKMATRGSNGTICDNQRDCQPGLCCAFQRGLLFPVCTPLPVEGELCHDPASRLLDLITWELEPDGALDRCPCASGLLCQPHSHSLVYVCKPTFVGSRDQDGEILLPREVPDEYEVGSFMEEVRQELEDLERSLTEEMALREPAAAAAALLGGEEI
HAPLN4, sequence (Q86UW8 30-402 limits assumed): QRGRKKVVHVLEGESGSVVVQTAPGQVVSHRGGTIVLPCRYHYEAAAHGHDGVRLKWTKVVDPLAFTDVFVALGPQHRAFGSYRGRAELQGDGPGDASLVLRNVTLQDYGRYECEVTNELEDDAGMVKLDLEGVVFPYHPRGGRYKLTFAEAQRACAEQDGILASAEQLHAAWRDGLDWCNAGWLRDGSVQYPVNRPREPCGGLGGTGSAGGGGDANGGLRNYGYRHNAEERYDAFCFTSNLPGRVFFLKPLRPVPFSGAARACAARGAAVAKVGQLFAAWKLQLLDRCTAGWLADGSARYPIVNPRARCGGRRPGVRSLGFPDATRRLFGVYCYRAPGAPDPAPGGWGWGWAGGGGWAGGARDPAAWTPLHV
TNFSF9, sequence (P41273 50-254 limits assumed): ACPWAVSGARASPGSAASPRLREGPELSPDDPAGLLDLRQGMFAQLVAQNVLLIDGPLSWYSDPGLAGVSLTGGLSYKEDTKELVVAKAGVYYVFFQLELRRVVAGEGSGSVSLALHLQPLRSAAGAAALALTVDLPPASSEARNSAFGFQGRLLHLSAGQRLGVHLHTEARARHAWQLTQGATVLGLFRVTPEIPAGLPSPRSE

The target in one assay is T1, CREG1. Description: ELISA. (In general: ELISA stands for enzyme-linked immunosorbent assay.)
B1: the binding result is “no binding (tested: 1 ug/ml)”.
On the same count and under the same terms, for B2 the value was “no binding (tested: 1 ug/ml)”; for B3, “no binding (tested: 1 ug/ml)”.

A further assay has as its target T2, EPYC. The assay can be described thus: ELISA.
Turning to B1, the binding result is listed as “no binding (tested: 1 ug/ml)”.
Same read-out and setting: to B2 belongs “no binding (tested: 1 ug/ml)”.
The same measure, in the same setting: to B3 belongs “no binding (tested: 1 ug/ml)”.

Another assay addresses PLXDC2 (Homo sapiens (Human), UniProt Q6UX71 31-454). Description: ELISA.
Regarding B1, the binding result is reported as “no binding (tested: 1 ug/ml)”.
Same read-out and setting: for B2 the value was “no binding (tested: 1 ug/ml)”.
For the molecule B3, the binding result is recorded as “no binding (tested: 1 ug/ml)”.

For the next assay, the target named is APCDD1 (Homo sapiens (Human), UniProt Q8J025 27-492). Description: ELISA.
APCDD1, sequence (Q8J025 27-492 limits assumed): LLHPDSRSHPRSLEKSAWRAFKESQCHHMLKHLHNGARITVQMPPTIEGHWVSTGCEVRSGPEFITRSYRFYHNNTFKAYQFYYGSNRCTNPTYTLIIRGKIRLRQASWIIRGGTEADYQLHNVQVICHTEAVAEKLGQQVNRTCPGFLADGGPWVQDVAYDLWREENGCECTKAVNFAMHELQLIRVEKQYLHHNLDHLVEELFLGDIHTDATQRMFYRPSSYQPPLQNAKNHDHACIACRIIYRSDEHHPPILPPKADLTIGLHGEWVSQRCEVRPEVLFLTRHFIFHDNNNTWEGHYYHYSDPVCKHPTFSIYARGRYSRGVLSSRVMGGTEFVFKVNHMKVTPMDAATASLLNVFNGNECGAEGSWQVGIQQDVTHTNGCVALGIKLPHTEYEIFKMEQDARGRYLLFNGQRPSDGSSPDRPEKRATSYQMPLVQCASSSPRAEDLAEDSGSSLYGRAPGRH
B1: the binding result was “no binding (tested: 1 ug/ml)”.
Still for that read-out and setting: for B2 the value was “no binding (tested: 1 ug/ml)”; for B3, “no binding (tested: 1 ug/ml)”.

A further assay addresses DKK3 (Homo sapiens (Human), UniProt Q9UBP4 22-350). The assay can be described thus: ELISA.
Consider B1, for which the binding result is reported as “no binding (tested: 1 ug/ml)”.
On the same count and under the same terms, for B2 the value was “no binding (tested: 1 ug/ml)”; for B3, “no binding (tested: 1 ug/ml)”.

The target in another assay is CFC1 (Homo sapiens (Human), UniProt P0CG37 26-158). Description: ELISA.
CFC1, sequence (P0CG37 26-158 limits assumed): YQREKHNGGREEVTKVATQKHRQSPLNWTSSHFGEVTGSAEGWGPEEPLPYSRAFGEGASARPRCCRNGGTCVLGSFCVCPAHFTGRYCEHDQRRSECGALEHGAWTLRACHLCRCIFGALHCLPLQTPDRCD
In the case of B1, the binding result is “no binding (tested: 1 ug/ml)”.
For B2, the binding result is “no binding (tested: 1 ug/ml)”.
On the same count and under the same terms, to B3 belongs “no binding (tested: 1 ug/ml)”.

The target in a further assay is T3, TNFSF8. Description: ELISA.
Take B1: the binding result is on record as “no binding (tested: 1 ug/ml)”.
On the same count and under the same terms, for B2 the value was “no binding (tested: 1 ug/ml)”; for B3, “no binding (tested: 1 ug/ml)”.

The target of a further assay is T4, LRTM1. The assay can be described thus: ELISA.
With B1, the binding result was “no binding (tested: 1 ug/ml)”.
On the same count and under the same terms, for B2 the value was “no binding (tested: 1 ug/ml)”; for B3, “no binding (tested: 1 ug/ml)”.

Another assay has as its target TNFSF9 (Homo sapiens (Human), UniProt P41273 50-254). The assay can be described thus: ELISA.
B1: the binding result was “no binding (tested: 1 ug/ml)”.
Still for that read-out and setting: for B2 the value was “no binding (tested: 1 ug/ml)”.
On the same count and under the same terms, to B3 belongs “no binding (tested: 1 ug/ml)”.

Another assay has as its target T5, DKK1. The assay can be described thus: ELISA.
As to B1, the binding result is given as “no binding (tested: 1 ug/ml)”.
On the same count and under the same terms, to B2 belongs “no binding (tested: 1 ug/ml)”.
Still for that read-out and setting: to B3 belongs “no binding (tested: 1 ug/ml)”.

A further assay has as its target HAPLN4 (Homo sapiens (Human), UniProt Q86UW8 30-402). Description: ELISA.
B1: the binding result was “no binding (tested: 1 ug/ml)”.
The same measure, in the same setting: to B2 belongs “no binding (tested: 1 ug/ml)”.
With B3, the binding result is reported as “no binding (tested: 1 ug/ml)”.

The next assay concerns the target T6, FSTL3. The assay can be described thus: ELISA.
B1: the binding result is “no binding (tested: 1 ug/ml)”.
For the molecule B2, the binding result is recorded as “no binding (tested: 1 ug/ml)”.
With B3, the binding result is “no binding (tested: 1 ug/ml)”.

A further assay deals with T7, TMED1. Description: ELISA.
As to B1, the binding result is on record as “no binding (tested: 1 ug/ml)”.
For the molecule B2, the binding result is listed as “no binding (tested: 1 ug/ml)”.
Same read-out and setting: for B3 the value was “no binding (tested: 1 ug/ml)”.

Another assay deals with T8, SLITRK2. Description: ELISA.
Take B1: the binding result is “no binding (tested: 1 ug/ml)”.
The same measure, in the same setting: to B2 belongs “no binding (tested: 1 ug/ml)”; to B3, “no binding (tested: 1 ug/ml)”.

For the origin of these results see patent US20190248900A1 (Y BIOLOGICS, published 2019).
